Measurements: US6787329

Test system: T1, TMR-Val-Pro-Arg-Gly-Lys-TMR
T1 sequence: XPRGX

trypsin showed an average fluorescence ratio w/ trypsin : w/o trypsin, excitation 360 nm, emission 570-585 nm of 26 fold, an average fluorescence ratio w/ trypsin : w/o trypsin, excitation 522 nm, emission 570-585 nm of 28 fold and an average fluorescence ratio w/ trypsin : w/o trypsin, excitation 530 nm, emission 570-585 nm of 27 fold. The average fluorescence ratio w/ trypsin : w/o trypsin, excitation 553 nm, emission 570-585 nm was 25 fold, the fluorescence ratio w/ trypsin : w/o trypsin, excitation 360 nm, emission 570 nm was 27 fold and the fluorescence ratio w/ trypsin : w/o trypsin, excitation 360 nm, emission 571 nm was 25 fold. It also gave a fluorescence ratio w/ trypsin : w/o trypsin, excitation 360 nm, emission 572 nm of 25 fold, a fluorescence ratio w/ trypsin : w/o trypsin, excitation 360 nm, emission 573 nm of 25 fold and a fluorescence ratio w/ trypsin : w/o trypsin, excitation 360 nm, emission 574 nm of 27 fold. The fluorescence ratio w/ trypsin : w/o trypsin, excitation 360 nm, emission 575 nm was 24 fold, the fluorescence ratio w/ trypsin : w/o trypsin, excitation 360 nm, emission 576 nm was 24 fold and the fluorescence ratio w/ trypsin : w/o trypsin, excitation 360 nm, emission 577 nm was 26 fold. It also gave a fluorescence ratio w/ trypsin : w/o trypsin, excitation 360 nm, emission 578 nm of 26 fold, a fluorescence ratio w/ trypsin : w/o trypsin, excitation 360 nm, emission 579 nm of 25 fold and a fluorescence ratio w/ trypsin : w/o trypsin, excitation 360 nm, emission 580 nm of 27 fold. It also gave a fluorescence ratio w/ trypsin : w/o trypsin, excitation 360 nm, emission 581 nm of 27 fold, a fluorescence ratio w/ trypsin : w/o trypsin, excitation 360 nm, emission 582 nm of 26 fold and a fluorescence ratio w/ trypsin : w/o trypsin, excitation 360 nm, emission 583 nm of 28 fold. It also gave a fluorescence ratio w/ trypsin : w/o trypsin, excitation 360 nm, emission 584 nm of 24 fold, a fluorescence ratio w/ trypsin : w/o trypsin, excitation 360 nm, emission 585 nm of 27 fold and a fluorescence ratio w/ trypsin : w/o trypsin, excitation 522 nm, emission 570 nm of 29 fold. For the same substance, the fluorescence ratio w/ trypsin : w/o trypsin, excitation 522 nm, emission 571 nm was 27 fold, the fluorescence ratio w/ trypsin : w/o trypsin, excitation 522 nm, emission 572 nm was 29 fold and the fluorescence ratio w/ trypsin : w/o trypsin, excitation 522 nm, emission 573 nm was 29 fold. It also gave a fluorescence ratio w/ trypsin : w/o trypsin, excitation 522 nm, emission 574 nm of 27 fold, a fluorescence ratio w/ trypsin : w/o trypsin, excitation 522 nm, emission 575 nm of 27 fold and a fluorescence ratio w/ trypsin : w/o trypsin, excitation 522 nm, emission 576 nm of 29 fold. For the same substance, the fluorescence ratio w/ trypsin : w/o trypsin, excitation 522 nm, emission 577 nm was 27 fold, the fluorescence ratio w/ trypsin : w/o trypsin, excitation 522 nm, emission 578 nm was 28 fold and the fluorescence ratio w/ trypsin : w/o trypsin, excitation 522 nm, emission 579 nm was 27 fold. For the same substance, the fluorescence ratio w/ trypsin : w/o trypsin, excitation 522 nm, emission 580 nm was 29 fold, the fluorescence ratio w/ trypsin : w/o trypsin, excitation 522 nm, emission 581 nm was 27 fold and the fluorescence ratio w/ trypsin : w/o trypsin, excitation 522 nm, emission 582 nm was 29 fold. For the same substance, the fluorescence ratio w/ trypsin : w/o trypsin, excitation 522 nm, emission 583 nm was 28 fold, the fluorescence ratio w/ trypsin : w/o trypsin, excitation 522 nm, emission 584 nm was 27 fold and the fluorescence ratio w/ trypsin : w/o trypsin, excitation 522 nm, emission 585 nm was 28 fold. For the same substance, the fluorescence ratio w/ trypsin : w/o trypsin, excitation 530 nm, emission 570 nm was 28 fold, the fluorescence ratio w/ trypsin : w/o trypsin, excitation 530 nm, emission 571 nm was 28 fold and the fluorescence ratio w/ trypsin : w/o trypsin, excitation 530 nm, emission 572 nm was 27 fold. The fluorescence ratio w/ trypsin : w/o trypsin, excitation 530 nm, emission 573 nm was 28 fold, the fluorescence ratio w/ trypsin : w/o trypsin, excitation 530 nm, emission 574 nm was 27 fold and the fluorescence ratio w/ trypsin : w/o trypsin, excitation 530 nm, emission 575 nm was 28 fold. For the same substance, the fluorescence ratio w/ trypsin : w/o trypsin, excitation 530 nm, emission 576 nm was 27 fold, the fluorescence ratio w/ trypsin : w/o trypsin, excitation 530 nm, emission 577 nm was 28 fold and the fluorescence ratio w/ trypsin : w/o trypsin, excitation 530 nm, emission 578 nm was 27 fold. For the same substance, the fluorescence ratio w/ trypsin : w/o trypsin, excitation 530 nm, emission 579 nm was 26 fold, the fluorescence ratio w/ trypsin : w/o trypsin, excitation 530 nm, emission 580 nm was 27 fold and the fluorescence ratio w/ trypsin : w/o trypsin, excitation 530 nm, emission 581 nm was 27 fold. It also gave a fluorescence ratio w/ trypsin : w/o trypsin, excitation 530 nm, emission 582 nm of 27 fold, a fluorescence ratio w/ trypsin : w/o trypsin, excitation 530 nm, emission 583 nm of 27 fold and a fluorescence ratio w/ trypsin : w/o trypsin, excitation 530 nm, emission 584 nm of 27 fold. The fluorescence ratio w/ trypsin : w/o trypsin, excitation 530 nm, emission 585 nm was 27 fold, the fluorescence ratio w/ trypsin : w/o trypsin, excitation 553 nm, emission 570 nm was 25 fold and the fluorescence ratio w/ trypsin : w/o trypsin, excitation 553 nm, emission 571 nm was 25 fold. For the same substance, the fluorescence ratio w/ trypsin : w/o trypsin, excitation 553 nm, emission 572 nm was 25 fold, the fluorescence ratio w/ trypsin : w/o trypsin, excitation 553 nm, emission 573 nm was 25 fold and the fluorescence ratio w/ trypsin : w/o trypsin, excitation 553 nm, emission 574 nm was 25 fold. For the same substance, the fluorescence ratio w/ trypsin : w/o trypsin, excitation 553 nm, emission 575 nm was 24 fold, the fluorescence ratio w/ trypsin : w/o trypsin, excitation 553 nm, emission 576 nm was 25 fold and the fluorescence ratio w/ trypsin : w/o trypsin, excitation 553 nm, emission 577 nm was 25 fold. For the same substance, the fluorescence ratio w/ trypsin : w/o trypsin, excitation 553 nm, emission 578 nm was 25 fold, the fluorescence ratio w/ trypsin : w/o trypsin, excitation 553 nm, emission 579 nm was 24 fold and the fluorescence ratio w/ trypsin : w/o trypsin, excitation 553 nm, emission 580 nm was 25 fold. For the same substance, the fluorescence ratio w/ trypsin : w/o trypsin, excitation 553 nm, emission 581 nm was 24 fold, the fluorescence ratio w/ trypsin : w/o trypsin, excitation 553 nm, emission 582 nm was 25 fold and the fluorescence ratio w/ trypsin : w/o trypsin, excitation 553 nm, emission 583 nm was 24 fold. It also gave a fluorescence ratio w/ trypsin : w/o trypsin, excitation 553 nm, emission 584 nm of 25 fold and a fluorescence ratio w/ trypsin : w/o trypsin, excitation 553 nm, emission 585 nm of 25 fold.

With “trypsin-like enzyme of Vibrio parahaemolyticus” the “increase in fluorescence on cleavage of the substrate” value was “Cleavage by the trypsin-like enzyme produced an increase in fluorescence”.
